Assay results: patent US20120172295A1
Non-standard residues stand in square brackets, D forms with d. No end group written: not given here. *: point of attachment. Palmitoyl = CCCCCCCCCCCCCCCC(=O)*; Myristoyl = CCCCCCCCCCCCCC(=O)*; Aib = CC(C)(N)C(=O)O

T1: GLP-1 receptor, P43220
T1 chain: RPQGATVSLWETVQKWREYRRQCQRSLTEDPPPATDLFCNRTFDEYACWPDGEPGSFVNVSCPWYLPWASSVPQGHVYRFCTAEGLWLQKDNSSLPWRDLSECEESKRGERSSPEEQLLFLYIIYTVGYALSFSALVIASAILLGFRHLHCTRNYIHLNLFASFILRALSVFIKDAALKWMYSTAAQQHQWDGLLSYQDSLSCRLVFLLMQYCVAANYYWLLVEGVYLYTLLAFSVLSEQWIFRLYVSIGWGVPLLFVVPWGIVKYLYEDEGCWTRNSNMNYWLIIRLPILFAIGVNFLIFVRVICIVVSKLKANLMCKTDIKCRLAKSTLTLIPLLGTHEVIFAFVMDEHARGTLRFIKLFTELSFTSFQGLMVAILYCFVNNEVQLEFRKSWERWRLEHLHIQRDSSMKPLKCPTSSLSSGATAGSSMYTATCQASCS

T2: GIP receptor, P48546
T2 chain: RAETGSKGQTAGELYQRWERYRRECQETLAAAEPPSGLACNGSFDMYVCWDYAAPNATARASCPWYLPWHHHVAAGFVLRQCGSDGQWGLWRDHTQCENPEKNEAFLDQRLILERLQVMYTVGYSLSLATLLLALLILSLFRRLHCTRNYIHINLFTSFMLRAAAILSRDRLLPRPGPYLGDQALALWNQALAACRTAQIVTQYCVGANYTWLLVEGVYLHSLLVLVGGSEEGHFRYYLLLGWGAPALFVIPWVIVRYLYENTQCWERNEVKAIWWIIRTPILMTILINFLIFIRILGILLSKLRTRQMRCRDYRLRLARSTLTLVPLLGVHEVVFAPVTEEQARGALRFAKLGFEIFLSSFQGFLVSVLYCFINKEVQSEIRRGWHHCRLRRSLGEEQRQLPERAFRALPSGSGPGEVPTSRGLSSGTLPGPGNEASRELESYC

B1: mt-346 (peptide)
peptide: H[Aib]QGTFTSDYSKYLDEQAAKEFICWLMNGGPSSGAPPPSK-NH2
modifications: N-terminus assumed
SMILES: CC[C@H](C)[C@H](NC(=O)[C@H](Cc1ccccc1)NC(=O)[C@H](CCC(=O)O)NC(=O)[C@H](CCCCN)NC(=O)[C@H](C)NC(=O)[C@H](C)NC(=O)[C@H](CCC(N)=O)NC(=O)[C@H](CCC(=O)O)NC(=O)[C@H](CC(=O)O)NC(=O)[C@H](CC(C)C)NC(=O)[C@H](Cc1ccc(O)cc1)NC(=O)[C@H](CCCCN)NC(=O)[C@H](CO)NC(=O)[C@H](Cc1ccc(O)cc1)NC(=O)[C@H](CC(=O)O)NC(=O)[C@H](CO)NC(=O)[C@@H](NC(=O)[C@H](Cc1ccccc1)NC(=O)[C@@H](NC(=O)CNC(=O)[C@H](CCC(N)=O)NC(=O)C(C)(C)NC(=O)[C@@H](N)Cc1c[nH]cn1)[C@@H](C)O)[C@@H](C)O)C(=O)N[C@@H](CS)C(=O)N[C@@H](Cc1c[nH]c2ccccc12)C(=O)N[C@@H](CC(C)C)C(=O)N[C@@H](CCSC)C(=O)N[C@@H](CC(N)=O)C(=O)NCC(=O)NCC(=O)N1CCC[C@H]1C(=O)N[C@@H](CO)C(=O)N[C@@H](CO)C(=O)NCC(=O)N[C@@H](C)C(=O)N1CCC[C@H]1C(=O)N1CCC[C@H]1C(=O)N1CCC[C@H]1C(=O)N[C@@H](CO)C(=O)N[C@@H](CCCCN)C(N)=O
B2: mt-361 (peptide)
peptide: H[Aib]QGTFTSDYSIYLD[Aib]QAAKEFVNWLMNGGPSSGAPPPSK-NH2
modifications: N-terminus assumed
SMILES: CC[C@H](C)[C@H](NC(=O)[C@H](CO)NC(=O)[C@H](Cc1ccc(O)cc1)NC(=O)[C@H](CC(=O)O)NC(=O)[C@H](CO)NC(=O)[C@@H](NC(=O)[C@H](Cc1ccccc1)NC(=O)[C@@H](NC(=O)CNC(=O)[C@H](CCC(N)=O)NC(=O)C(C)(C)NC(=O)[C@@H](N)Cc1c[nH]cn1)[C@@H](C)O)[C@@H](C)O)C(=O)N[C@@H](Cc1ccc(O)cc1)C(=O)N[C@@H](CC(C)C)C(=O)N[C@@H](CC(=O)O)C(=O)NC(C)(C)C(=O)N[C@@H](CCC(N)=O)C(=O)N[C@@H](C)C(=O)N[C@@H](C)C(=O)N[C@@H](CCCCN)C(=O)N[C@@H](CCC(=O)O)C(=O)N[C@@H](Cc1ccccc1)C(=O)N[C@H](C(=O)N[C@@H](CC(N)=O)C(=O)N[C@@H](Cc1c[nH]c2ccccc12)C(=O)N[C@@H](CC(C)C)C(=O)N[C@@H](CCSC)C(=O)N[C@@H](CC(N)=O)C(=O)NCC(=O)NCC(=O)N1CCC[C@H]1C(=O)N[C@@H](CO)C(=O)N[C@@H](CO)C(=O)NCC(=O)N[C@@H](C)C(=O)N1CCC[C@H]1C(=O)N1CCC[C@H]1C(=O)N1CCC[C@H]1C(=O)N[C@@H](CO)C(=O)N[C@@H](CCCCN)C(N)=O)C(C)C
B3: mt-363 (peptide)
peptide: H[Aib]QGTFTSDYSKYLDEQAAKEFIAWLMNGGPSSGAPPPSK-NH2
modifications: N-terminus assumed
SMILES: CC[C@H](C)[C@H](NC(=O)[C@H](Cc1ccccc1)NC(=O)[C@H](CCC(=O)O)NC(=O)[C@H](CCCCN)NC(=O)[C@H](C)NC(=O)[C@H](C)NC(=O)[C@H](CCC(N)=O)NC(=O)[C@H](CCC(=O)O)NC(=O)[C@H](CC(=O)O)NC(=O)[C@H](CC(C)C)NC(=O)[C@H](Cc1ccc(O)cc1)NC(=O)[C@H](CCCCN)NC(=O)[C@H](CO)NC(=O)[C@H](Cc1ccc(O)cc1)NC(=O)[C@H](CC(=O)O)NC(=O)[C@H](CO)NC(=O)[C@@H](NC(=O)[C@H](Cc1ccccc1)NC(=O)[C@@H](NC(=O)CNC(=O)[C@H](CCC(N)=O)NC(=O)C(C)(C)NC(=O)[C@@H](N)Cc1c[nH]cn1)[C@@H](C)O)[C@@H](C)O)C(=O)N[C@@H](C)C(=O)N[C@@H](Cc1c[nH]c2ccccc12)C(=O)N[C@@H](CC(C)C)C(=O)N[C@@H](CCSC)C(=O)N[C@@H](CC(N)=O)C(=O)NCC(=O)NCC(=O)N1CCC[C@H]1C(=O)N[C@@H](CO)C(=O)N[C@@H](CO)C(=O)NCC(=O)N[C@@H](C)C(=O)N1CCC[C@H]1C(=O)N1CCC[C@H]1C(=O)N1CCC[C@H]1C(=O)N[C@@H](CO)C(=O)N[C@@H](CCCCN)C(N)=O
B4: mt-362 (peptide)
peptide: H[Aib]QGTFTSDYSIYLD[Aib]QAAKEFVNWLMNGGPSSGAPPPSK(Palmitoyl)-NH2
modifications: N-terminus assumed
SMILES: CCCCCCCCCCCCCCCC(=O)NCCCC[C@H](NC(=O)[C@H](CO)NC(=O)[C@@H]1CCCN1C(=O)[C@@H]1CCCN1C(=O)[C@@H]1CCCN1C(=O)[C@H](C)NC(=O)CNC(=O)[C@H](CO)NC(=O)[C@H](CO)NC(=O)[C@@H]1CCCN1C(=O)CNC(=O)CNC(=O)[C@H](CC(N)=O)NC(=O)[C@H](CCSC)NC(=O)[C@H](CC(C)C)NC(=O)[C@H](Cc1c[nH]c2ccccc12)NC(=O)[C@H](CC(N)=O)NC(=O)[C@@H](NC(=O)[C@H](Cc1ccccc1)NC(=O)[C@H](CCC(=O)O)NC(=O)[C@H](CCCCN)NC(=O)[C@H](C)NC(=O)[C@H](C)NC(=O)[C@H](CCC(N)=O)NC(=O)C(C)(C)NC(=O)[C@H](CC(=O)O)NC(=O)[C@H](CC(C)C)NC(=O)[C@H](Cc1ccc(O)cc1)NC(=O)[C@@H](NC(=O)[C@H](CO)NC(=O)[C@H](Cc1ccc(O)cc1)NC(=O)[C@H](CC(=O)O)NC(=O)[C@H](CO)NC(=O)[C@@H](NC(=O)[C@H](Cc1ccccc1)NC(=O)[C@@H](NC(=O)CNC(=O)[C@H](CCC(N)=O)NC(=O)C(C)(C)NC(=O)[C@@H](N)Cc1c[nH]cn1)[C@@H](C)O)[C@@H](C)O)[C@@H](C)CC)C(C)C)C(N)=O

Target: T1, GLP-1 receptor, P43220
Assay: cell-based or functional assay

Binder	% relative activity	EC50
B1	367%	0.0015 nM
B2	226%	0.0109 nM
B3	672%	0.0037 nM
H[Aib]QGTFTSDYSKYLDEQAAKEFIC(PEG 40 kDa)WLMNGGPSSGAPPPSK(Myristoyl)-NH2 [mt-349]	286%	0.0022 nM
B4	241%	0.102 nM

Target: T2, GIP receptor, P48546
Assay: cell-based or functional assay

Binder	% relative activity	EC50
B1	0.34%	0.796 nM
B2	0.29%	1.05 nM
B3	0.73%	0.425 nM
H[Aib]QGTFTSDYSKYLDEQAAKEFIC(PEG 40 kDa)WLMNGGPSSGAPPPSK(Myristoyl)-NH2 [mt-349]	0.18%	1.99 nM
B4	3.95%	0.0782 nM

target: glucagon receptor, P47871; assay: cell-based or functional assay
Sequence (P47871 26-477 limits assumed): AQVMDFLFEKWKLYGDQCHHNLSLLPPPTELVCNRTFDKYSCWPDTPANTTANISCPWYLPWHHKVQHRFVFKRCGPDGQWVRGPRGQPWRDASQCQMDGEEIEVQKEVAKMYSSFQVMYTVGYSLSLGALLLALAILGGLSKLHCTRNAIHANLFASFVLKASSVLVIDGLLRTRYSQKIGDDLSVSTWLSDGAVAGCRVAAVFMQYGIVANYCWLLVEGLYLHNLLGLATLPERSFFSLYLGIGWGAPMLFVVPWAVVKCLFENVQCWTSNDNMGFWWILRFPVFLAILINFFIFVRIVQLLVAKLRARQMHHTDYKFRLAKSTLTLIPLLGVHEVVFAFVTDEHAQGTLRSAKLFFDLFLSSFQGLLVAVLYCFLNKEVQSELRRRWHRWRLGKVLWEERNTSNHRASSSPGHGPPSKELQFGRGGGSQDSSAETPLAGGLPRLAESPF

Binder	% relative activity	EC50
B1	3.7%	0.954 nM
B2	3.61%	1.77 nM
B3	7.76%	0.823 nM
H[Aib]QGTFTSDYSKYLDEQAAKEFIC(PEG 40 kDa)WLMNGGPSSGAPPPSK(Myristoyl)-NH2 [mt-349]	3.82%	0.549 nM
B4	83.2%	0.0768 nM
